Measurements as given in CN110272489A.

B1: mab15 (鼠源抗体) (antibody, V domains shown)
VH: EVKLVESEGGLVQPGSSMKLSCTASGFTFSDYYMTWVRQVPEKGLEWVASINYDGRNTYYLDSLKSRFIISRDNAKNILYLQMSSLKSEDTATYYCARGYYYYGSSPNYFDYWGQGTTLTVSS
VL: DIQMTQSPASLSASVGETVTITCRASENIYSYLTWYQQKQGKSPQLLVYNAKTLAEGVPSRFSGSGSGTQFSLRINSLQPEDFGNYYCQQHYGTPLTFGAGTKLELK
B2: 人源化ab32抗体 (全人源化抗体) (antibody, human IgG4 S228P, kappa, V domains shown)
VH: EVQLVESGGGLVKPGGSLRLSCAASGFTFSDYYMTWVRQAPGKGLEWVSSINYDGRNTYYLDSLKSRFTISRDNAKNSLYLQMNSLRAEDTAVYYCARGYYYYGSSPNYFDYWGQGTLVTVSS
VL: DIQMTQSPSSLSASVGDRVTITCRASENIYSYLTWYQQKPGKAPKLLIYNAKTLAEGVPSRFSGSGSGTDFTLTISSLQPEDFATYYCQQHYGTPLTFGQGTKLEIKR

Assays:
[1] = biological target: 人TIM-3 (recombinant antigen of the ELISA of Example 3: TIM-3-hFc captured on goat-anti-hFc, or Tim-3-his coated directly) (human) (UniProt Q8TDQ0); assay: ELISA of hybridoma supernatant on human TIM-3 (Example 3)
[2] = biological target: 狨猴(marmoset) Tim-3蛋白 (狨猴(marmoset)) (UniProt F7I881); assay: ELISA, against ABTIM3 as reference

Binder	ELISA 数值(OD450) [1] [OD450]	fold stronger than the positive control molecule [2] [fold]
B1	1.14	
B2		> 4
